Data taken from US20250019454A1 (BIOCYTOGEN PHARMACEUTICALS BEIJING, published 2025).

T1: His-tagged human TNFR1 (Human TNFR1/CD120a/TNFRSF1A Protein, His Tag, Acrobiosystems Cat #: TN1-5222) (human, UniProt P19438 30-211)
T1 construct: Bought protein; also called hTNFR1-His; hTNFR 1-His; not shown: His tag
T1 sequence (looked up): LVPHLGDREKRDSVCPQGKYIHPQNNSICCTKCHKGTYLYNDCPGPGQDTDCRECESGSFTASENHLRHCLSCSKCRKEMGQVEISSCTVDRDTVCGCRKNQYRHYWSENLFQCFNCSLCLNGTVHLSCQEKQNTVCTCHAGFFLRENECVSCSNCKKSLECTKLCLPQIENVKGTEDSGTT

T2: ΔCRD2-TNFR2 protein (with CRD2 deletion), on CHO-S cells (human, UniProt P20333 23-461)
T2 construct: also called CHO-SΔCRD2-TNFR2
T2 sequence: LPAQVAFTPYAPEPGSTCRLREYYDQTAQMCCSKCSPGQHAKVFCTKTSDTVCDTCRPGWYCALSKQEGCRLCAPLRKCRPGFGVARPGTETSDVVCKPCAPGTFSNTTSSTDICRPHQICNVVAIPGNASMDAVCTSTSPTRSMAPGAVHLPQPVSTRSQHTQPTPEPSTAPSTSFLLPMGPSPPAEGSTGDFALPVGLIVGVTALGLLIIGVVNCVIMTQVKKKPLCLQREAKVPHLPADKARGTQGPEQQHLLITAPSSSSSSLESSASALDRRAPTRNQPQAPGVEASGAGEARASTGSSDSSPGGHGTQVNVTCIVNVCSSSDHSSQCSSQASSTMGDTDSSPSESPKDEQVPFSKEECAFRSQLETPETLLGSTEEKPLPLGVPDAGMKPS

T3: ΔCRD4-TNFR2 protein (with CRD4 deletion), on CHO-S cells (human, UniProt P20333 23-461)
T3 construct: also called CHO-SΔCRD4-TNFR2; TNFR2 lacking CRD4
T3 sequence: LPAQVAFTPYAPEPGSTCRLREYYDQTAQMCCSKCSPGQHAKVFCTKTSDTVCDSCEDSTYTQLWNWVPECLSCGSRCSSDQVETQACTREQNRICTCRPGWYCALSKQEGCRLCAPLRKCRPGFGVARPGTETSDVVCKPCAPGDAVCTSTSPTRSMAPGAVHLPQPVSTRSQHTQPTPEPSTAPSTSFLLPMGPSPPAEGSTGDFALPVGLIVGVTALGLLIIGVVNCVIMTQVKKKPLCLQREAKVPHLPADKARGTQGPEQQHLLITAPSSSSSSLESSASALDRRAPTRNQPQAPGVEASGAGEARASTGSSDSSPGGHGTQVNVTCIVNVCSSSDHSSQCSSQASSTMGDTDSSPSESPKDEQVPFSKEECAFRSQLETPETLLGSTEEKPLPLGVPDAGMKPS

T4: human TNFR2 (expressed on cells) (human, UniProt P20333 23-461)
T4 construct: also called hTNFR2; human TNF Receptor 2
T4 sequence: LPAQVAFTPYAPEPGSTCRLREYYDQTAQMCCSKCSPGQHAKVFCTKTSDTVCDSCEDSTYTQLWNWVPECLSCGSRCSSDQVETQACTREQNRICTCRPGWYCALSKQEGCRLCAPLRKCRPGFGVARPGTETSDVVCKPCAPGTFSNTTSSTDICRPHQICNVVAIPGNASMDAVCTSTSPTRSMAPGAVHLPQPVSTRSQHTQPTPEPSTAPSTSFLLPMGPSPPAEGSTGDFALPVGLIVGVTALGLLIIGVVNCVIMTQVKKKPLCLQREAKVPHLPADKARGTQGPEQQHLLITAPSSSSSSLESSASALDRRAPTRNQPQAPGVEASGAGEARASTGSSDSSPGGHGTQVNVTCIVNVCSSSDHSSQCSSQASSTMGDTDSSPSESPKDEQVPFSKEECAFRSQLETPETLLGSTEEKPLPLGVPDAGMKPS


Experiments:
[1] = target: T1, His-tagged human TNFR1 (Human …); test: SPR Biacore 8K, antibody captured on Protein A chip
Description: The binding affinity of the anti-TNFR2 antibodies to human TNFR2 and TNFR1 (Tumor necrosis factor receptor 1) were measured using surface plasmon resonance (SPR) using Biacore (Biacore, INC, Piscataway NJ) 8K biosensor equipped with pre-immobilized Protein A sensor chips.
Purified anti-TNFR2 antibodies were diluted to 1 μg/mL and then injected into the Biacore 8K biosensor at 10 μL/min for about 50 seconds to achieve a desired protein density (e.g., about 50 response units (RU)). […] Dissociation was monitored for 600 seconds. The chip was regenerated after the last injection of each titration with Glycine (pH 2.0, 30 μL/min for 30 seconds).

[2] = target: T2, ΔCRD2-TNFR2 protein (with CRD2 …); test: FACS on CHO-S cells with ΔCRD2-TNFR2, AF647 anti-human IgG Fc secondary
Source text: (§1) TNFR2 has four cysteine rich domains (CRD). In another experiment, FACS was used to detect the binding of anti-hTNFR2 antibodies to TNFR2 proteins with different structural domains. Secondary antibody (Alexa Fluor® 647 AffiniPure F(ab′) 2 Fragment Goat Anti-Human IgG, Fcγ fragment specific, Jackson ImmunoResearch Laboratories, Inc., Cat #: 151524) was used. The fluorescence-labeled secondary antibody can attach to the Fc region of the anti-hTNFR2 antibodies so that the anti-hTNFR2 antibodies that are bound to the ΔCRD cells can be detected by FACS. Specifically, ΔCRD1-TNFR2 protein (with CRD1 deleteion), ΔCRD2-TNFR2 protein (with CRD2 deleteion), ΔCRD3-TNFR2 protein (with CRD3 deleteion) or ΔCRD4-TNFR2 protein (with CRD4 deleteion) were expressed in CHO-S cells respectively, and then the binding between the cells and different anti-hTNFR2 antibodies was detected.

[3] = target: T3, ΔCRD4-TNFR2 protein (with CRD4 …); test: FACS on CHO-S cells with ΔCRD4-TNFR2, AF647 anti-human IgG Fc secondary
Source text: as §1

[4] = target: T4, human TNFR2 (expressed on cells); test: flow cytometry competition, CHO cells with human TNFR2, antibody 10 µg/mL, Biotin-hTNFα 0.5 µg/mL
Description: (§2) 30 μl of Biotin-hTNFα (Acro Biosystems, Cat #: TNA-H82E1) was added to each well (with a final concentration of 0.5 μg/mL in each well). The cells with Biotin-hTNFα and the antibodies were incubated at 4° C. for 30 minutes.
(§3) The signals for AF647 and PE were determined by flow cytometry (Thermo Attune NX).

[5] = target: T4, human TNFR2 (expressed on cells); test: flow cytometry competition, CHO cells with human TNFR2, antibody 0.039 µg/mL, Biotin-hTNFα 0.5 µg/mL
Description: as §2, §3

Row | positive rate of binding (% of cells) [2] [%] | positive rate of binding (% of cells) [3] [%] | percentage of tested cells that had Streptavidin signals [4] [%] | percentage of tested cells that had Streptavidin signals [5] [%] | Binder | binding result [1]
1 | 80.3 | 1.85 | 71.1 | 77 | BC-1C3-IgG1 (antibody, V domains shown, Human VH/VL joined to the human IgG1 subtype) VH: QVQLVESGGGVVHPGKSLRLSCAASGFTFNIYGMHWVRQAPGKGLEWVALISYDGNDKYFADSVKGRFTISRDNSKNTLYLQMNSLRAEDTAVYYCAKAVDTAVVTFFDYWGQGTLVTVSS VL: EIVMTQSPVTLSVSPGERATLSCRASQSVSSNLAWYQQKPGQAPRLLIYSASTRATGIPARFSGSGSGTEFTLTISSLQSEDLAVYYCQQYSNWPFTFGPGTKVDIK | no binding (tested: up to 200 nM analyte)
2 | 71.2 | 29.4 | 12 | 62.8 | BC-1A8-IgG1 (antibody, V domains shown, Fully human VH/VL joined to the human IgG1 subtype, kappa light chain (RenMab mice)) VH: QVQLQQSGPGLVKPSQTLSLTCAISGDSVSSNSAAWNWIRQSPSRGLEWLGRTYYRSKWYNDYALSVKSRITINPETSKNQFSLQLNSVTPEDTAVYYCAREDGVGGTKDYFDYWGQGTLVTVSS VL: DIQMTQSPSSLSASVGDRVTITCQASQDIDNYLNWYQQKPGKAPKLLIYDVSNLEIGVPSRFSGSGSGTDFTFTISSLQPEDIATYYCQQYDNLPLTFGQGTRLEIK | no binding (tested: up to 200 nM analyte)
3 | 59.1 | 21.3 | 18.5 | 84.6 | BC-1F4-IgG1 (antibody, V domains shown, Human VH/VL joined to the human IgG1 subtype) VH: QVQLQQSGPGLVKPSQTLSLTCAISGDSVSSDSSAWNWIRQSPSRGLEWLGRTYYRSKWYNDYTVSVKSRITINPDTSKNQFSLQLNSVTPEDTAVYYCAREDGVGGTKDYFDYWGQGTLVTVSS VL: DIQMTQSPSSLSASVGDRVTITCQASQDISNYLNWYQQKPGKAPKLLIYDASNLETGVPSRFSGSGSGTDFTFTINSLQPEDFATYFCQQYDNLPITFGQGTRLEIK | no binding (tested: up to 200 nM analyte)
4 | – | – | 75.1 | 78.9 | BC-1B6-IgG1 (antibody, V domains shown, Human VH/VL joined to the human IgG1 subtype) VH: QVQLVESGGGVVQPGRSLRLSCAASGFTFSNFGMHWVRQAPGKGLEWVAVIWYEGSDKYYADSVKGRFTISRDNSKNTLYLQMNSLRAEDTAVYYCARDSSWGFLLYGMDVWGQGTTVTVSS VL: DVVMTQSPLSLPVTLGQPASISCRSSRSLEYSDGNTYLNWFQQRPGQSPRRLIYKVSNRDSGVPDRFSGSGSGTAFTLKISGVEAEDVGVYYCMQGTHWPPTFGGGTKVEIK | no binding (tested: up to 200 nM analyte)
5 | 65.7 | 38.3 | 51.9 | 59 | BC-1F10-IgG1 (antibody, V domains shown, Human VH/VL joined to the human IgG1 subtype) VH: QVQLQQWGAGLLKPSETLSLICAVYDGSFSGDYWSWIRQPPGKGLEWIGEINHSGSTNYNPSLKSRVTISVDTSKNQFSLKLSSVTAADTAVYYCARGHWNYDYYYGMDVWGQGTTVTVSS VL: not shown | no binding (tested: up to 200 nM analyte)
